As usually defined, the Kd is a measure of binding affinity in units of concentration. Lower therefore signals tighter binding.

The values that follow come from publication PMC4386031.

This assay deals with seven of the nine datasets (monoUb and the diUb types fitted to a one-site binding model). The assay can be described thus: SPR; monoUb and all types of diUb immobilized, NZF1 (or its mutants) binding detected; one-site or two-site binding model; two experiments.

Consider “TRABID NZF1 (aa 1-33) (from UniProt Q9UGI0 1-33) (domain or fragment)”, for which the dissociation constant Kd lay within 190 to 370 µM.
